Test results: publication PMC8281802, “Bacterial Vipp1 and PspA are members of the ancient ESCRT-III membrane-remodeling superfamily” (Cell, 2021)
Several values for one entry are separate records, joined by “and”; a condition that tells them apart may be missing. Identical values can stand only once.

Key:
[1] = target: the molecule itself; assay: cryo-EM structure; 35 μM Vipp1 mixed with pre-formed rat Dynamin 1 filaments (to keep the ice thick) and vitrified; rings of C11 to C17 symmetry reconstructed
[2] = target: the molecule itself; assay: cross-linking; cysteine cross-linking: 5 μM protein in 25 mM Tris-HCl pH 8.4, 50 mM NaCl with CuP or 5 μM MTS-4, 1 h at room temperature; rescue with 10 mM DTT; SDS-PAGE
[3] = target: the molecule itself; assay: SEC + other: negative stain EM; filament assembly assay: Sephacryl 16/60 S500 gel filtration in 25 mM Tris-HCl pH 8.4, 50 mM NaCl; void volume, peak 1 and peak 2 analysed by SDS-PAGE and negative stain EM

B1: Vipp1/IM30 from Nostoc punctiforme, full-length (amino acids 1–258) (natural protein, UniProt B2J6D9 1-258, looked up)
chain: MGLFDRIKRVVSSNLNDLVNKAEDPEKMLEQAILEMQEDLVQLRQGVAQAIAAQKRSEKQYNDAQNEINKWQRNAQLALQKGDENLARQALERKKTYTDTSAALKASLDTQSTQVETLKRNLIQLESKISEAKTKKEMLKARITTAKAQEQLQGMVRGMNTSSAMSAFERMEEKVLMQESRAQALGELAGADLETQFAQLEGGSDVDDELAALKAQMLPPATPVTQAQLPPQQETTPAKSNEVVDAELDSLRKQLDQL
notes: Vipp1/IM30, Nostoc punctiforme, UniProt B2J6D9, amino acids 1-258, 28.7 kDa; His6 sits on the MBP moiety and leaves with it on TEV cleavage; also called native Vipp1; WT; not shown: MBP, N-terminal, cleaved; His6, N-terminal, cleaved
stoichiometry N [1]: 84 subunits and 55 subunits to 119 subunits (2×)

B2: Vipp1_(L86C/L193C) (natural protein, Nostoc punctiforme, UniProt B2J6D9 1-258, looked up)
chain: MGLFDRIKRVVSSNLNDLVNKAEDPEKMLEQAILEMQEDLVQLRQGVAQAIAAQKRSEKQYNDAQNEINKWQRNAQLALQKGDENCARQALERKKTYTDTSAALKASLDTQSTQVETLKRNLIQLESKISEAKTKKEMLKARITTAKAQEQLQGMVRGMNTSSAMSAFERMEEKVLMQESRAQALGELAGADCETQFAQLEGGSDVDDELAALKAQMLPPATPVTQAQLPPQQETTPAKSNEVVDAELDSLRKQLDQL
notes: Vipp1/IM30, Nostoc punctiforme, UniProt B2J6D9, with the cysteine pair L86C and L193C; Plasmid pOPTM/Vipp1_(L86C/L193C); The legend notes some uncleaved MBP-Vipp1 in the gel; also called L193C and L86C mutants; not shown: MBP, N-terminal, cleaved; His6, N-terminal, cleaved
binding result [2]: binds

B3: Vipp1Δα6_(1–219) (domain or fragment, Nostoc punctiforme, UniProt B2J6D9 1-219, looked up)
chain: MGLFDRIKRVVSSNLNDLVNKAEDPEKMLEQAILEMQEDLVQLRQGVAQAIAAQKRSEKQYNDAQNEINKWQRNAQLALQKGDENLARQALERKKTYTDTSAALKASLDTQSTQVETLKRNLIQLESKISEAKTKKEMLKARITTAKAQEQLQGMVRGMNTSSAMSAFERMEEKVLMQESRAQALGELAGADLETQFAQLEGGSDVDDELAALKAQMLP
notes: Vipp1/IM30, Nostoc punctiforme, UniProt B2J6D9, residues 1-219; lacks the C-terminal extension with helix α6 (aa 220-258); Plasmid pOPTM/Vipp1Δα6_(1-219); not shown: MBP, N-terminal, cleaved; His6, N-terminal, cleaved
binding result [3]: binds
